Patent US20220267469A1 (LIPUM, published 2022)
Changes are numbered by the printed parent chain. In names and notes the source's numbering stands. One block for each binder: values may come before it.

What was measured:
[1] = target: T1, Mouse BSSL, recombinant (mouse, UniProt Q64285 21-599); assay: SPR steady state, hIgG4 S228P captured by anti-Fab
T1 construct: Bought (R&D Systems, Cat. no 5658-CE); also called mBSSL; murine BSSL
T1 sequence: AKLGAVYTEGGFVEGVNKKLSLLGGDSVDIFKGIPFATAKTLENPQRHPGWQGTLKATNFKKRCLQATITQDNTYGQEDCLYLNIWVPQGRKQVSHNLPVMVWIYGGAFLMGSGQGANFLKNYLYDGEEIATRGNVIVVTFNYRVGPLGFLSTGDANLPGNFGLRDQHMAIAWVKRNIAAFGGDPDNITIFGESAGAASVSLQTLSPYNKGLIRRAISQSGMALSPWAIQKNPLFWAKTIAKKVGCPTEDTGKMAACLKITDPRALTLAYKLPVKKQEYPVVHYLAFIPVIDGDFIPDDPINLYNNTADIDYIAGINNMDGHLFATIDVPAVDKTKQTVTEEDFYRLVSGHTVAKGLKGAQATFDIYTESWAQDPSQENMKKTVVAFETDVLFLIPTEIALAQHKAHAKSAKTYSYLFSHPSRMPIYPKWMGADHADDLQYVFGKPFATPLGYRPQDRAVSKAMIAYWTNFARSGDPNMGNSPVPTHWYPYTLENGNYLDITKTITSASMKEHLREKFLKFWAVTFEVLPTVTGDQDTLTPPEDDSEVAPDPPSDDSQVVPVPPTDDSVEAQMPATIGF
Procedure: (§1) Kinetic parameters of the hIgG4 S228P clones were determined by SPR using BIACORE® T200 (GE Healthcare). Single cycle kinetics was used to measure the affinity of the purified hIgG4 molecules to human and mouse BSSL. An anti-Fab antibody (GE Healthcare, #28958325) was immobilized on a CM5 S sensor chip by primary amine coupling using NHS-EDC chemistry. hIgG4 was captured by the anti-Fab antibody, and subsequently, five different concentrations of hBSSL (1:5 dilutions starting from 50 nM) or mBSSL (1:5 dilutions starting from 500 nM) were injected over the surface. The sensor chip surface was regenerated with 10 mM glycine-HCl pH 2.1. For binding to human BSSL, single cycle kinetic data was fitted to a 1:1 binding model and kinetic parameters were retrieved using software BlAevaluation. For mouse BSSL, a steady state analysis was performed by plotting the response level at equilibrium against each concentration, and KD values were retrieved by the BlAevalution software.

[2] = target: T2, Human BSSL (bile salt-stimulated lipase), native (human, UniProt P19835 21-753); assay: SPR single cycle kinetics, hIgG4 S228P captured by anti-Fab
T2 construct: Native full-length protein purified from human milk (Astra Hässle AB); also called hBSSL; non-biotinylated human BSSL
T2 sequence: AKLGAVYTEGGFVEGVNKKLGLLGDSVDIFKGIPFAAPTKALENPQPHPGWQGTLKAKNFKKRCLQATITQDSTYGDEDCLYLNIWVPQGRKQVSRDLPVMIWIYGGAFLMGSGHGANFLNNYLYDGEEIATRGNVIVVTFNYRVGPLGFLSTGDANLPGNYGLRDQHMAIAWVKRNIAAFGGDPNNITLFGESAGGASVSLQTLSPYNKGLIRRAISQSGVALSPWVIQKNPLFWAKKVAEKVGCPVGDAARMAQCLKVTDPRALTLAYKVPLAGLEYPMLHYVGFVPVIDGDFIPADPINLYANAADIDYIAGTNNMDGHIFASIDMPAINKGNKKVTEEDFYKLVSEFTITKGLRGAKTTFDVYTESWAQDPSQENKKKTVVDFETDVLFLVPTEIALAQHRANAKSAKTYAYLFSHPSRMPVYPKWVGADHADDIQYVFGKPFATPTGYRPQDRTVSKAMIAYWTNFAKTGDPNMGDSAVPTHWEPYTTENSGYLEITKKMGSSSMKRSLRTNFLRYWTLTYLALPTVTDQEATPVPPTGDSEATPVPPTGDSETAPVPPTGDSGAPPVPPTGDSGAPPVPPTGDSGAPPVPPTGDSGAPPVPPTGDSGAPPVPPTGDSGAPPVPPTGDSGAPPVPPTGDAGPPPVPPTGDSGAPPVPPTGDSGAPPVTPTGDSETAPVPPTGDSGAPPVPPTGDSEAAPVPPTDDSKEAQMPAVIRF
Procedure: as §1

[3] = target: T3, Biotinylated human BSSL (human, UniProt P19835 21-753, Biotinylated on glycosacarides, 30-40 biotin/BSSL); assay: flow cytometry displacement assay; 0.5 ug antibody, 1 ug b-hBSSL
T3 construct: hBSSL biotinylated in house; also called b-hBSSL; human BSSL-biotin
T3 sequence: T2 sequence
Procedure: (§2) The 28 BSSL-specific hIgG4 antibodies and the five reference antibodies at different concentrations (ranging from 0.5 μg to 3.0 μg per reaction; see Table 10) were added to b-hBSSL (1 μg per reaction, see Table 2) in round-bottom polystyrene tubes, lx PBS (pH 7.4) was added to a final volume of 20 μl and the antibody/b-hBSSL mixtures were incubated for 30 min. at +4° C. to facilitate binding of antibodies to BSSL. Buffy coat (50 μl) was then added to each antibody/b-hBSSL mixture and incubation continued for another 30 min at +4° C. Thereafter, 2 ml of FACS lysing solution (BD Biosciences) was added and the cells were incubated for 10 min at room temperature in order to lyse erythrocytes and fix the white blood cells. The cells were then centrifuged for 5 min. at 200×g, the resulting pellets were washed by adding 2 ml of FACS buffer (1×PBS supplemented with 1% FCS and 0.1% NaN3) and centrifuged again. Finally, the supernatants were discarded and the cells were resuspended in the last drop of liquid, approximately 50 μl.
(§3) 5 μl of BV421-labelled anti-human CD14 (BD Biosciences) and 5 μl of BB515-labelled streptavidin (BD Biosciences) was added to each tube and incubated for 30 min, at +4° C., protected from light. Thereafter, cells were washed twice with FACS buffer, resuspended in 500 μl FACS buffer, and run on BD LSRII flow cytometer (BD Biosciences). Finally, data were analyzed using FlowJo software (BD Biosciences).

[4] = target: T3, Biotinylated human BSSL; assay: flow cytometry displacement assay; 1.0 ug antibody, 1 ug b-hBSSL
Procedure: as §2, §3

[5] = target: T3, Biotinylated human BSSL; assay: flow cytometry displacement assay; 1.5 ug antibody, 1 ug b-hBSSL
Procedure: as §2, §3

[6] = target: T3, Biotinylated human BSSL; assay: flow cytometry displacement assay; 2.0 ug antibody, 1 ug b-hBSSL
Procedure: as §2, §3

[7] = target: T3, Biotinylated human BSSL; assay: flow cytometry displacement assay; 3.0 ug antibody, 1 ug b-hBSSL
Procedure: as §2, §3

B1: S-SL048-66 hIgG4 S228P (antibody, V domains shown)
VH: QVQLVQSGAEVKKPGASVKVSCKASGYTFTSYNMHWVRQAPGQGLEWMGVINPGDGATSYNQKFKGRVTMTRDTSTSTVYMELSSLRSEDTAVYYCARDYYGSSPLGYWGQGTLVTVSS
VL: DIQMTQSPSSLSASVGDRVTITCSASQSISYMNWYQQKPGKAPKLLIYDASSLASGVPSRFSGSGSGTDFTLTISSLQPEDFATYYCHQRSSTPTFGQGTKLEIK
notes: Tested as human IgG4 S228P
Kd [1]: 83 nM
Kd [2]: 8 nM
percentage reduction of b-hBSSL binding to CD14+ monocytes [3]: 12%
percentage reduction of b-hBSSL binding to CD14+ monocytes [4]: 12%
percentage reduction of b-hBSSL binding to CD14+ monocytes [5]: 39%
percentage reduction of b-hBSSL binding to CD14+ monocytes [6]: 43%
percentage reduction of b-hBSSL binding to CD14+ monocytes [7]: 51%

B2: S-SL048-38 hIgG4 S228P (antibody, V domains shown)
VH: B1 VH with N61A, K65Q
VL: B1 VL with S24R, Q27P, M32L, D49A, A50T, H88Q, T93S
notes: Tested as human IgG4 S228P
Kd [1]: 67 nM
Kd [2]: 1 nM
percentage reduction of b-hBSSL binding to CD14+ monocytes [3]: 6%
percentage reduction of b-hBSSL binding to CD14+ monocytes [4]: 44%
percentage reduction of b-hBSSL binding to CD14+ monocytes [5]: 52%
percentage reduction of b-hBSSL binding to CD14+ monocytes [7]: 51%

B5: S-SL048-131 hIgG4 S228P (antibody, V domains shown)
VH: B1 VH with M48I, N61A
VL: B1 VL with S24R, Q27P, M32L, D49A, S52K, T93S
notes: Tested as human IgG4 S228P
Kd [1]: 63 nM
Kd [2]: 2.7 nM
percentage reduction of b-hBSSL binding to CD14+ monocytes [5]: 31%
percentage reduction of b-hBSSL binding to CD14+ monocytes [7]: 58%

B6: S-SL048-48 hIgG4 S228P (antibody, V domains shown)
VH: B1 VH with M48I, N61A, K65Q
VL: B1 VL with S24R, Q27P, D49A, A50T, S52R, A54Q, T93S
notes: Tested as human IgG4 S228P
Kd [1]: 41 nM
Kd [2]: 0.8 nM
percentage reduction of b-hBSSL binding to CD14+ monocytes [3]: 28%
percentage reduction of b-hBSSL binding to CD14+ monocytes [4]: 23%
percentage reduction of b-hBSSL binding to CD14+ monocytes [5]: 50%
percentage reduction of b-hBSSL binding to CD14+ monocytes [6]: 61%
percentage reduction of b-hBSSL binding to CD14+ monocytes [7]: 68%

More lines, in order of falling Kd [1], values ahead:

Kd [1]: 123 nM
Kd [2]: 2.1 nM
percentage reduction of b-hBSSL binding to CD14+ monocytes [5]: 9%
percentage reduction of b-hBSSL binding to CD14+ monocytes [7]: 33%
B3: S-SL048-125 hIgG4 S228P (antibody, V domains shown)
VH: B1 VH with M48I, N61A, K65Q
VL: B1 VL with S24R, Q27S, M32L, N33H, D49A, S52R, A54P, T93Y
notes: Tested as human IgG4 S228P

Kd [1]: 30 nM
percentage reduction of b-hBSSL binding to CD14+ monocytes [3]: 5%
percentage reduction of b-hBSSL binding to CD14+ monocytes [4]: 23%
percentage reduction of b-hBSSL binding to CD14+ monocytes [5]: 21%
percentage reduction of b-hBSSL binding to CD14+ monocytes [6]: 35%
percentage reduction of b-hBSSL binding to CD14+ monocytes [7]: 39%
B4: S-SL048-65 hIgG4 S228P (antibody, V domains shown)
VH: B1 VH with M48I, N61A
VL: B1 VL with M32L, A54P, T93S
notes: Tested as human IgG4 S228P
